Measurements taken from a protein production outcome set (Wang et al. 2014).

Assay: label from the status in PepcDB records

MRKGLIRNGSYSILLVIYRWFCWAIVLIGIIPVNGVISLAYAATPADWNKGAYAYSAEQTPLSAILADFANSHGVDLVLGNIADNEVTAKIRADNPTLFLDRLALEHRFQWFVYNNALYVSPQDEQASVRLEISPDAAPDIKQALSGIGLIDSRFGWGELPEEGVVLVTGPKAYIDLIRNFSQQREKQDERRKVMIFPLRYASVSDRTLQYRDQKITIPGVATILNELMDGQRAAPAGASGPMPVQPDTGMEAMRDSTRSLMTRLATRTSPGRSGEASSRVTLSGKISADVRNNALLIRDDEKRRAEYQQLVEHIDVPQNLVNIDAIILDVDRTALSRLEANWQAQLGNVSAGSTMMMGRSTLFVSDFKRFFADIQALEGEGTASIVANPSVLTLENQPAIVDFSRTAFITATGERVADIQPVTAGTSLQVTPRVIGEGAQRSIQLVIDIEDGQVETGREGEASGVKRGTVSTQALIGENRALVLGGFHVEESGDRDRRIPILGDIPLLGKLFTSTRHEVSRRERLFILTPHLVGDQTDPTRYVSSVNRQQLNGAMNRVAQRNGKTDLYSLIEGAFRDLASRQLPAGFQADSKGARLGEVCRSQSGLIYDSSRYQWYGNGQVRLSVGVVRNGGTQPQRFDEAACASSRTLAVAVWPKTTLAPGESSEVFLALQPALTAQPTRRNVLISN
protein production: failed

MTQANLSETLFKPRFKHPETSTLVRRFSHGAQPPVQSALDGKTIPHWYRMINRLMWIWRGIDPREILDVQARIVMSDAERTDDDLYDTVIGYRGGNWIYEWATQAMVWQQKACAEEDPQLSGRHWLHAATLYNIAAYPHLKGDDLAEQAQALSNRAYEEAAQRLPGTMRQMEFTVPGGAPITGFLHMPKGDGPFPTVLMCGGLDAMQTDYYSLYERYFAPRGIAMLTIDMPSVGFSSKWKLTQDSSLLHQHVLKALPNVPWVDHTRVAAFGFRFGANVAVRLAYLESPRLKVVACLGPVVHTLLSDFKCQQQVPEMYLDVLASRLGMHDASDEALRVELNRYSLKVQGLLGRRCPTPMLSGYWKNDPFSPEEDSRLITSSSADGKLLEIPFNPVYRNFDKGLQEITDWIEKRLC
protein production: failed

MSKQLLALNIDGALLRSNGKIHQATKDAIEYVKKKGIYVTLVTNRHFRSAQKIAKSLKLDAKLITHSGAYIAEKIDAPFFEKRISDDHTFNIVQVLESYQCNIRLLHEKYSIGNKKKVNSNLLGKALIHPSDPIFYPVQFVESLSDLLMDEPVSAPVIEVYTEHDIQHDITETITKAFPAVDVIRVNDEKLNIVPKGVSKEAGLALVASELGLSMDDVVAIGHQYDDLPMIELAGLGVAMGNAVPEIKRKADWVTRSNDEQGVAYMMKEYFRMQQRKGFLDKFHMKR
protein production: not failed

MLGSQCAASEPVPAHSLWRGQDMSPNMRGALLMTGSMAAFTCNDTVVKLLGSEMPLFQILVLRSGLSAVWIYFLARRLGALHLRFGRRDRMLVALRCLSEIGATYFFLTALLNMPLANVTAVLQMLPLTVTLGAALFFGEQVGWRRMLAIGLGFCGMLLIVRPGPDGFTLHAIYAMAAVICVTARDLVTRRMSSHVPSLTVTLATALSVMSFGLVGSLTVDWVPLTTDLGLGLLAASLLVLGGYLFSVMVMRIGEVGFVAPFRYSSLLWALVLGWLVFGDWPDPLTMAGVALVVATGLFTLFRERASRHRG
protein production: failed

METLDNHDQGFCRQVPRQAVCGFSRRTGWGGAAIFVMLMTLALAAPVQAQSLRQGVSAYQRQDYVAASRIFIPLAERGNAAAQTYLGLLFETGRGLPQNYTEAAMWYRRAAEQGDSRAQYSLGLLYDRGFGVPQDVVEASKWLNLSTAAAPPRAREARVRIRDAVTTKMTRGEIAQARLRALEWAPSREH
protein production: failed

MSDAHKSDLYLVLVTLLAAIGWMLSKEAVLMMPPLMFMAARFLIAGAFLALLALPSLLRLSRDQILRSLGVGFVFGIAMTCWIMGLYHTDSMGEGAFLTSLGVVIVPIIARTVFGEQQPLSTWLAIPIAVAGLALLSLENGFRPDPGQLYFVLAATIFALYFTLNTRAANQRIVVDKQGKTVEKKKVPALPLTAIALLTVGTVTLAESAISERWTHILTNPEPMLYVWVLASALIATAARFLLQTYAQSLSVNSHGVVILVLEPVWVAVFAVAWFGETMTLLQIAGCALIFAALLVNRWNALSRAIKALMKAKNPRQRG
protein production: failed

MSLNGITKYVEKLTFFNIQSGKQVEFNRDEKVILSNVPFIQQLPELDRGCEVTSLAMMLQYAGITVDKMKLANEIKKVDFMNDGVRGNPNEGFVGNIYTFSESGYGVYHGPLFQLAKKYLPNKAVDLTGKSIEELYKSVKAGQPVVIITNATFAPLDEDEFTTWETNNGDVSITYNEHCVVLIGYDQESVYIRDPLKDSLDVKVPREKFEQAWVQMGSQAISYVKRSKEGHHHHHH
protein production: not failed

MGVLHALREEEGAARARFEEALTHDAGHYRARMNIGNLDLEAGRLPEAEAAYREVLKLAPEYDGAHHNLGVALRRQGKLYESVGSIRKAQRLGVSGARAAAKEDMQEQLRLNPHLRWIRAAIFIGVLLLLGVLLWLNRGRA
protein production: failed

MEFEVKKTFGKARLGVMKLHHGAVETPVFMPVGTNASVKLLTPRDLEEAGAEIILSNTFHLMLKPGVEIIKLHRGLHNFMGWKRPILTDSGGFQVFSLPKIRIDDEGVVFRSPIDGSKVFLNPEISMEVQIALGSDICMVFDHCPVPDADYEEVKEATERTYRWALRSKKAFKTENQALFGIVQGGIYPDLRRESALQLTSIGFDGYAIGGLSIGEERSLTLEMTEVTVEFLPEDKPRYFMGGGSPELILELVDRGVDMFDSVFPTRIARHGTALTWNGKLNLKASYNKRSLEPVDERCGCYTCKNFTRSYIHHLFDRGEVLGQILLTIHNINFMISLMKEVRRSIESGTFKELKSKVVEVYSSGGVNV
protein production: not failed

MMVGLINAIPVANKDEYKNVGVYIEHRGDEIKRSSLEMIGIGKQLARKINEKLLCVVIGDKVDGIAKEVGEYGCDIVLAAESPDLAEYRTMPYAQIIGDYIAEYKPNIFLLAATRNGRDLASRIAVKERTGITADCTVLDVDENRTLLANRPTYGESTLAEILCRNHRPQMATARPGTFTPAEKEKDHKYEIVKKKVNVDKNMLKKQIIKFIPKKATDLTAAKIVVAGGLGLGGPDGFKLLQDLADLIGGAVGSSRPPVDLGWITRDHQVGQTGQAVRPDLYVAVGISGKPQHVAGMKFSKVIISINKDPNAEINKISDYIIVEDYRKAVPALIDAIKNFGKQKVAEAQKA
protein production: failed

HLDASLQEVAEHAFGDYLGGLVALDPNTGGVLALVSKPGFDPNLFVDGIDPETWKSLNESPERPMVNRALRGIYPPGSTIKPLMALAGLELGLREPDDSIDDPGFFRLPNSQHRFRDWKPGGHGIVDLRRSISQSCDIYYYRLAVDMGIDRMHDYLTQFGLGQKTGIDLQGESSGLLPSRAWKQRRWKQPWYPGETVIAGIGQGYHLTTPLQLATMTAMLANGGKRIQPRLVDAVRDPHTRAWQTQAPVMLGEVAIDPENLAVVRQGMMDVTRPGGTAAASAAGAAYGIAGKTGTAQVVGIKQGARYDATRLAREHRDHALFVAYAPAENPVIAVAVMVENGGSGSGTAAPIARAVFDYYLTGKRPGTMKLETDDAAD
protein production: failed

LKDIETACKLLNITADPMDWSPSNVQKWLLWTEHQYRLPPMGKAFQELAGKELCAMSEEQFRQRSPLGGDVLHAHLDIWKSAA
protein production: not failed

ACTQPSDWVPPAKNDALVIALKKVIGGRLSDAFHIRDKLQRRDAIAAVKDDVIQQLAGRLEVEGWNLAELLKEFGELEYRTMRDALLDTKVRIDGRSLEAVRP
protein production: not failed

MTENTFTDPSWLRLSCFIGVLLLCNLWENKLPRKTLTVKRSFRWLNNLSLVALNSAIIALVMPIAAFQAAAIAHDQQWGLFNLLSLPGWLNVLLAVIVLDLIIYVQHLVFHRVKPLWKIHRMHHADLDIDVTTGARFHPIEIIISMVVKITSVFILGVSPLAIVVFEIILNASAMFNHSNAKLALSIDKKLRKVIVTPDMHRVHHSVMVKETHSNFGFFLSVWDRWFGTYRAQPALGHNDVVIGVPEIREASEQRLDKLLTQPFRYREGKGKNVD
protein production: not failed

MISPELVKEALKKKKVRSEEAFGLEYLRFNDDYKDIPRGTAIFKDFIIWGYPHIGRIFLLETGLREQFEAPFWVEEKVDGYNTRIFKYGDNYYALSRGGFICPFTTDRLPDLIDLRILDENPDLVICAEVAGPENPYIEESPPYVKEDVQLFVFDFMKKNEQGFLSQEEKMELIEKYNLPHVEILGRFTASEEGIKKIKEILKRFNEEGREGVVFKEDSERNKRAKYITSYANLMDIKTNAKNMLQLPPEYYTNRILRLVLFMYEEGLKTTEHLYEELGRAFIDGLFQAIEQFEKEHKVYKTFTCKFRKKENAIALLELLSKTSKHIQVKERRLEKEGDYWRLEFDKVFLNMTGLLGHLLSGGIVYD
protein production: not failed

MAERTSDPAANDRFYFRQLLSGRDFAGADPIAQQMRNFAYFIGDRETGEAVVVDPAYAADELAAALEADGMRLAGVLVTHHHPDHVGGSMMGFTLKGVAELLEHRSVPVHVNSHEADWVSQVTGIARSELSAHEHGDTISVGAIDIELLHTPGHTPGSQCFLVDGRLVAGDTLFLEGCGRTDFPGGNVDDMFRSLQALAKLPGDPTVYPGHWYSAEPSAPLEEVKRSNYVYRASNLDQWRMLMGG
protein production: failed

MSLKGLRRLVLDVLKPHEPKTIVFALKLSELENVDGVNIHLSEIDQATENIKITILGNNLDYEQIKGVIEDMGGVIHSVDEVVAGKIIVESVEGHHHHHH
protein production: not failed

MRTSAFVPVLLFALLGALVGCSGGTELTYSGPEEAYKKGVAEMEEGDHQQAIRFFRAVFEYGRGNEWAPDARFKLAMAQRGLNKHLVAANEFQRFTQLYRNDELLPRAEFERANSYYLRSPSYRLDQSDSEQAISLFRLFIDRHPNHELVPEAEEKINELRAKLARKKYEAGRLYEQRDMWQAATTVYERAFDQYPDTPWADDALLGAVRTYIRYADRSVESKQAERYQKAIENYNRLTQLFPESTLLGRAEDLYSEAREKLDRAQAQQGEQSLAQEDASSGSN
protein production: failed

EPRVNTSALQKIAADMSNIIENLDTRELHFEGEEVDYDVSPSDPKIQEVYIPFSAIYNTQGFKEPNIQTYLSGCPIKAQVLEVERFTSTTRVPSINLYTIELTHGEFKWQVKRKFKHFQEFHRELLKYKAFIRIPIPTRRHTFRRQN
protein production: failed

MQEIMYLAPELVLVATGLVILLTGVFLSPQSKNILGYLATLGTLAAIFLTVKSFGLLTMEGFSVQYTIFSETLSIDALSQFFKLVFLAVALIVSIASIKYTENSDHTEEFYTLVLFATFGMMIVASANDLILLFCAFELASLATFALAGFEKQNARSLEGAMKYFVIGSVSAALMLFGLSFVYGATGTTSIPLIAQNPGLLTGNPIGIVAIVLLTAGFGFKMALVPFHMWAPDTYQGSPSVVSALLAAGSKKMGFVAAFRVFIIALAALQPDWQFMFTLLAVVTMTFGNVVAVAQTSVKRMLAYSSLAQAGYIAMAFAVMTPVALAGGIMYTLAHAFMKAGAFIAAAAVVWMITSEKTGNLDIPDHLDSFRGLGKRMPLAALCMTVFVFALAGIPPTAGFMAKFVLFSSTIQAGMTWLAVIAILNSALSLFYYARLVKYMYFMPPEGKTEKVSIPFPYAAALLVAVAGVLVMGLWPEPFVELAMKAAMVLVPF
protein production: failed

MIMMESGKLDLDRTKEGVKKYWDYGSKFYDTAPGLGGNEESQIWKKLLSSSIGPDLKNILDVGSGTGIIAMYLAELGYGVTAVDFSEGMMDIARKKALEKGAKIRFMEGDIENLSFEDETFDCVTARYVLWTLPHPEKALKEWVRVVKPGGRIVIIDGKWVTRGLLPRISAMNYHIYRFIKYGKNPFTYDYRKEVSVGLPNPHGVEKKQIMEYVSKAGLTDIVVTDLKIIRDIQRKKLPWYLKYANDHPIFMVRGTVAKKG
protein production: failed
